# Experimental data published in the supplement of paper PMC10065799, “High-throughput profiling of sequence recognition by tyrosine kinases and SH2 domains using bacterial peptide display” (eLife, 2023).
# How the values were obtained:
# [1] = target: Jak2 (UniProt O60674); experiment: phosphorylation enrichment, bacterial display (enrichment ratio); higher = better substrate or ligand; peptides without Tyr show the background
# [2] = target: Fes (UniProt P07332); experiment: as above
# [3] = test system: AncSZ; experiment: as above
# [4] = test system: c-Src; experiment: as above
# [5] = target: FGFR1 (UniProt P11362); experiment: as above
# [6] = test system: c-Abl (mouse); experiment: as above
# [7] = target: MERTK (UniProt Q12866); experiment: as above
# [8] = target: Hck (UniProt P08631); experiment: as above
# [9] = target: EPHB1 (UniProt P54762); experiment: as above
# [10] = test system: Fer (mouse); experiment: as above
# [11] = target: Fyn (UniProt P06241); experiment: as above
# [12] = target: EPHB2 (UniProt P29323); experiment: as above
# [13] = target: FGFR3 (UniProt P22607); experiment: as above
# [14] = target: c-Src SH2; experiment: SH2 binding enrichment of the phosphorylated peptide, bacterial display (enrichment ratio); higher = better substrate or ligand; peptides without Tyr show the background
# [15] = target: Grb2 SH2 (UniProt P62993); experiment: as above
# [16] = target: SHP2-C SH2; experiment: as above
# 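For SH2 binding enrichment of the phosphorylated peptide, bacterial display in this document: peptide library displayed on the E. coli surface as eCPX fusions, selected cells deep-sequenced, score is each peptide's frequency after selection divided by its frequency in the input.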
# 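For phosphorylation enrichment, bacterial display in this document: 11-residue human phosphosite peptides and single-mutation variants displayed on the E. coli surface, counted by deep sequencing, each peptide's frequency after selection divided by its frequency in the unselected input library; frequency after pTyr selection over input frequency; kinase dosed for 20-30% of maximal phosphorylation in three min.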
# Sequence of MERTK (Q12866 whole entry, looked up): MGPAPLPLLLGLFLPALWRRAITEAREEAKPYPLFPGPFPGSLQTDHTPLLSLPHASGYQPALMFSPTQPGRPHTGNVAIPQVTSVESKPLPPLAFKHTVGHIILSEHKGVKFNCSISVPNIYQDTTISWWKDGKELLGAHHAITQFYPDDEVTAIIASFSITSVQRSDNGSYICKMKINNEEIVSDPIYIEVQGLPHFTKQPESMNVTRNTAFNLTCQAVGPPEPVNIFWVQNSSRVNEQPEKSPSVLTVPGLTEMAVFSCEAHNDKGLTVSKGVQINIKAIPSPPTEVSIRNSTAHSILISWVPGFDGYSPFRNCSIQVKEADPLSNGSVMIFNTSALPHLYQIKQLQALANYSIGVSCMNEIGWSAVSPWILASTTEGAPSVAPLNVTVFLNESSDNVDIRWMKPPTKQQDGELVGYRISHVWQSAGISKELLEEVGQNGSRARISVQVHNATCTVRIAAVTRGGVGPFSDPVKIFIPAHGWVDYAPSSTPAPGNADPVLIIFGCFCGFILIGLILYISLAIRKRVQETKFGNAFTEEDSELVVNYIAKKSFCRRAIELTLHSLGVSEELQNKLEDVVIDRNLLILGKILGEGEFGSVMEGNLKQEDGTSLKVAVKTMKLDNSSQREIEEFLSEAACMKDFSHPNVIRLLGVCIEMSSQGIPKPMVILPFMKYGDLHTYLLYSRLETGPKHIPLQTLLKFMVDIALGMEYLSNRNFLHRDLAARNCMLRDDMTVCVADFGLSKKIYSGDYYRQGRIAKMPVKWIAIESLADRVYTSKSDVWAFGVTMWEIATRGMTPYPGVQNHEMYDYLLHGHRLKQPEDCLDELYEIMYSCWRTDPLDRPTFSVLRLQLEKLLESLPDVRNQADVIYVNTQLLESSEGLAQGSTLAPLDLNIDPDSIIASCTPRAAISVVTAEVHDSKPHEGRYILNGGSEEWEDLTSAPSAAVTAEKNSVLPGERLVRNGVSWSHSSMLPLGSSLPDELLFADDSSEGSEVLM
# Sequence of FGFR1 (P11362 whole entry, looked up): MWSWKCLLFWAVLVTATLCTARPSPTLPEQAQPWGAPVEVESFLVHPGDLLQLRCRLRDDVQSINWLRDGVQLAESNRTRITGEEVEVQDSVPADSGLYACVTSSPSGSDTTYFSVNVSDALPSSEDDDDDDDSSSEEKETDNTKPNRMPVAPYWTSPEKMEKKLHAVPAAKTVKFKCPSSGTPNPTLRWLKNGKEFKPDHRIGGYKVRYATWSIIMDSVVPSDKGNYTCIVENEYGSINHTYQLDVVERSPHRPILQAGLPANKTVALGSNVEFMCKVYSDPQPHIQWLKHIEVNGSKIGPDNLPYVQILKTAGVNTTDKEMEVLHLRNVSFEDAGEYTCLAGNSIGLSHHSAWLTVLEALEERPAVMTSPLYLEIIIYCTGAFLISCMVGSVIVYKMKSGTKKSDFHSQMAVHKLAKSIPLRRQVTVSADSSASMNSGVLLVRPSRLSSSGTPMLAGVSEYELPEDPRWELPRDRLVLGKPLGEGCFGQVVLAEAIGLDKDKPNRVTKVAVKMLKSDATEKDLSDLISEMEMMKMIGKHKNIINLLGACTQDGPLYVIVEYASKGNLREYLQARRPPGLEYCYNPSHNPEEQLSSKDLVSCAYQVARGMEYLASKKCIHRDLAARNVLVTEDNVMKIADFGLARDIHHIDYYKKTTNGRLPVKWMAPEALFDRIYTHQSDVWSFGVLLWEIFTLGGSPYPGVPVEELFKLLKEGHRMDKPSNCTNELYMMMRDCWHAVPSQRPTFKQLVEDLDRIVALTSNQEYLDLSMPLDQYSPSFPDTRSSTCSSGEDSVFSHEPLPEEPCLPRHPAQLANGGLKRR
# Sequence of Fes (P07332 whole entry, looked up): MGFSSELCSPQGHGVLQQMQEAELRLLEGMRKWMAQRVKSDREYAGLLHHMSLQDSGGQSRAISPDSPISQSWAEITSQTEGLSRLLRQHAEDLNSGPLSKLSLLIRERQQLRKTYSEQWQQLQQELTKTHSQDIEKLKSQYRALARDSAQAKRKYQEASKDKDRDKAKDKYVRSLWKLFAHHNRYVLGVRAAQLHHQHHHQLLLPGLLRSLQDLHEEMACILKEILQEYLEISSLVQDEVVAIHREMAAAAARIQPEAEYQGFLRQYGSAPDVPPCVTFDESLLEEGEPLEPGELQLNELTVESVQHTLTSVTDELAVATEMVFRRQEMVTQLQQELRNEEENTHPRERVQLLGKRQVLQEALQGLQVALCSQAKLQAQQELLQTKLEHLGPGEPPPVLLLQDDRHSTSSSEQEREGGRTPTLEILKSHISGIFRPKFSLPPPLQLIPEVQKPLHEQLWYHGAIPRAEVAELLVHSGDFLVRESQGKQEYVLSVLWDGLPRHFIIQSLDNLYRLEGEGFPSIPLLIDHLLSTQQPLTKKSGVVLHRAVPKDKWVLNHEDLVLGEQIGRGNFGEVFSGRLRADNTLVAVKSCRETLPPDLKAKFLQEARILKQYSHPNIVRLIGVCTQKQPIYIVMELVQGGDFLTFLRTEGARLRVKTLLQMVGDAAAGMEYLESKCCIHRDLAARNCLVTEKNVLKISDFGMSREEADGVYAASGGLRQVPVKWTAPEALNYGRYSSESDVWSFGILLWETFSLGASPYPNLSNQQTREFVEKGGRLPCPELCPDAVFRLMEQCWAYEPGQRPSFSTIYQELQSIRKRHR
# Sequence of Grb2 SH2 (P62993 whole entry, looked up): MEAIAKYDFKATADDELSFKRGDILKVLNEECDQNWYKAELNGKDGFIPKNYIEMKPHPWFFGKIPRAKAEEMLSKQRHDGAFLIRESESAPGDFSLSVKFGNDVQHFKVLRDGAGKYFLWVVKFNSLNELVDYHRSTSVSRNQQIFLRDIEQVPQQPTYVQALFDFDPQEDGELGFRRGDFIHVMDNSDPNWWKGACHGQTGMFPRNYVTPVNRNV
# Sequence of Jak2 (O60674 whole entry, looked up): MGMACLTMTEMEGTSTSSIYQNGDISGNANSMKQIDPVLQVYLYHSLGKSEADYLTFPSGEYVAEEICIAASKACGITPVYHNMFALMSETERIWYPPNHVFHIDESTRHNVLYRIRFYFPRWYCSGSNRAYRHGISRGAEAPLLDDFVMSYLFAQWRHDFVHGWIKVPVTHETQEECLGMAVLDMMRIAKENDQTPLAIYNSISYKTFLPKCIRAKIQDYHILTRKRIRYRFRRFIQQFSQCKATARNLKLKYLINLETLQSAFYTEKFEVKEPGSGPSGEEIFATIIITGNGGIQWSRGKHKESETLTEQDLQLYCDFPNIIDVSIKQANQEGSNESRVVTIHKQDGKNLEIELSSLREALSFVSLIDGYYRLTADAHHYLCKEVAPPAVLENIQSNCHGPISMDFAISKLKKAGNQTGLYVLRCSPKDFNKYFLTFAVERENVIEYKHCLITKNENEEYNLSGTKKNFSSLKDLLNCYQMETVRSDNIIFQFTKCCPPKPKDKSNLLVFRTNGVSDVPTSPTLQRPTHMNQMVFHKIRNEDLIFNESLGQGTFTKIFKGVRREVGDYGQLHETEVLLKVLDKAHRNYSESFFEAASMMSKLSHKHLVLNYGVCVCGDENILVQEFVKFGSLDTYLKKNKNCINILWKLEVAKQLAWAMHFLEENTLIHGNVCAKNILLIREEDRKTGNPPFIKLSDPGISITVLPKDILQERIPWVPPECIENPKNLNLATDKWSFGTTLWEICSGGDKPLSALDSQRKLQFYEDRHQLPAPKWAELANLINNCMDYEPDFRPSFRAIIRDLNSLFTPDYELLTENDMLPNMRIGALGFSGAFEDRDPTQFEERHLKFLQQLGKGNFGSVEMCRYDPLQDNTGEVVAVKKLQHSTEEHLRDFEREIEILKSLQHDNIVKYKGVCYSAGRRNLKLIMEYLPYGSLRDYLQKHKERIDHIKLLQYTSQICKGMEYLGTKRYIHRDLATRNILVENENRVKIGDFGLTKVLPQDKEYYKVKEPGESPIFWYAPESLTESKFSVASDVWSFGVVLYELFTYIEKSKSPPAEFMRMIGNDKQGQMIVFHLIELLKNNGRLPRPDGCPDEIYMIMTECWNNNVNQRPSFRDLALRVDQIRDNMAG
# Sequence of Fyn (P06241 whole entry, looked up): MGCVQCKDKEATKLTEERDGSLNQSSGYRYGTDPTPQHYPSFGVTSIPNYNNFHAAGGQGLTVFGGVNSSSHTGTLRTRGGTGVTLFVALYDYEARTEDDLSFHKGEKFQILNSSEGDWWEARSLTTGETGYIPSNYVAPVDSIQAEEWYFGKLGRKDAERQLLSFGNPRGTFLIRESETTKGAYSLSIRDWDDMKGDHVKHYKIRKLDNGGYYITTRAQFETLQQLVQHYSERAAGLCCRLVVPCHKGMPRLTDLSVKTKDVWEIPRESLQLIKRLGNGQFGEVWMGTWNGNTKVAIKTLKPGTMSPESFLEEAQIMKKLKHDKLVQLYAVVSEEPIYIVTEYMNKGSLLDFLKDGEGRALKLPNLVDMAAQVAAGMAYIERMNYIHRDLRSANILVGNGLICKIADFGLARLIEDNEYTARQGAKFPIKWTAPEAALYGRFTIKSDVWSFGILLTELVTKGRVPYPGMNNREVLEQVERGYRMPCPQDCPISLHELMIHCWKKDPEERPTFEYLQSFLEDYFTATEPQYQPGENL
# Sequence of Hck (P08631 whole entry, looked up): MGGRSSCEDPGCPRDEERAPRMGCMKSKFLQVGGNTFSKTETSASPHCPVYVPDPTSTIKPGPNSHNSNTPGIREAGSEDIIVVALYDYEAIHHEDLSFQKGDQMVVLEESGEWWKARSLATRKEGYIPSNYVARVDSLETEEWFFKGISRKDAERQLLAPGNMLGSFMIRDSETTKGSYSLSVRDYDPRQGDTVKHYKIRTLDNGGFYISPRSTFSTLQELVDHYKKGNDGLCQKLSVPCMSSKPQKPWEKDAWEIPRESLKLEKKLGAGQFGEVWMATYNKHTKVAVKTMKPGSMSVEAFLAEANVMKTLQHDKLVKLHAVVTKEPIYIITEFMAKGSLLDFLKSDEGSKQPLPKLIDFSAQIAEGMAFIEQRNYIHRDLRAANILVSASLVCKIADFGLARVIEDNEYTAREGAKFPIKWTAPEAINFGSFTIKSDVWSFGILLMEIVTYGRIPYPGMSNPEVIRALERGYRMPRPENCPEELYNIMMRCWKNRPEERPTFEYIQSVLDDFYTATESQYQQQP
Sequence,phosphorylation enrichment [1],phosphorylation enrichment [2],phosphorylation enrichment [3],phosphorylation enrichment [4],phosphorylation enrichment [5],phosphorylation enrichment [6],phosphorylation enrichment [7],phosphorylation enrichment [8],phosphorylation enrichment [9],phosphorylation enrichment [10],phosphorylation enrichment [11],phosphorylation enrichment [12],phosphorylation enrichment [13],SH2 binding enrichment [14],SH2 binding enrichment [15],SH2 binding enrichment [16]
FNVLQYVVPEV [EIF3A_Y382],1.55,1.32,1.88,0.58,2.06,5.16,1.99,0.635,0.933,0.701,0.629,1.02,1.85,0.599,0.835,0.963
FPPISYLHAIS [MVD_Y276_N278H],0.793,1,0.984,0.608,0.602,0.829,0.544,0.565,0.434,0.545,0.602,0.579,0.612,0.657,0.862,0.657
FPRTGYSVPFG [TGM1_Y370_L366P_YF],0.688,0.709,0.686,0.511,0.379,1.11,0.485,0.419,0.493,0.421,0.475,0.504,0.513,3.87,0.987,1.4
FQGGTYSKAST [FGG_Y380_YF],0.478,0.544,0.448,0.41,0.495,0.446,0.46,0.308,0.377,0.325,0.372,0.452,0.413,0.657,0.787,1.14
FRNKPYISWPS [CDC42BPB_Y1638_S1633Y_YF],0.424,0.552,0.457,0.445,0.408,0.36,0.417,0.414,0.255,0.366,0.345,0.33,0.427,1.6,1.99,1.77
FSIDFYRVGGH [NTRK2_Y707_T704I_YF],1.24,1.37,1.19,0.436,0.531,0.837,0.429,0.456,0.593,0.466,0.465,0.573,0.719,0.548,0.926,0.814
FSKDNYKRVTG [PANK2_Y405_YF],0.409,0.452,0.397,0.369,0.407,0.416,0.383,0.396,0.409,0.394,0.401,0.412,0.393,0.406,0.719,0.502
FSLIHYARIVD [MYH7_Y582_G584R],1.01,1.29,1.13,0.426,0.576,0.762,0.418,0.506,0.702,0.588,0.528,0.63,0.819,4.46,1.12,26.8
FSNKLHFQLEQ [PDPR_Y109_Y109H_YF],0.889,1.18,0.976,0.491,0.482,0.709,0.51,0.398,0.473,0.43,0.471,0.509,0.509,0.482,0.917,0.938
FSQNICIQNRN [PKP2_Y631_Y631C_YF],0.841,0.903,0.766,0.44,0.395,0.719,0.388,0.392,0.608,0.535,0.384,0.524,0.584,0.665,0.733,0.627
FSQQTYFPVSN [ABCD1_Y180_R182P_YF],5.51,1.01,1.1,1.95,4.99,0.723,3.42,2.5,0.946,0.494,0.889,0.908,3.8,0.599,0.647,0.811
FTGSTYRVGDT [FN1_Y106_N104S_YF],0.783,0.703,0.631,0.484,0.425,0.448,0.551,0.404,0.41,0.492,0.37,0.384,0.431,0.443,0.731,0.482
FVIISYVLIIR [OR1D2_Y218],0.503,0.733,0.994,0.517,0.672,0.457,0.527,0.508,0.561,0.566,0.517,0.325,0.727,1.89,4.69,4.04
FVSIVYSDSGE [TSC2_Y1650_N1651S],0.952,1.16,0.766,0.591,0.444,0.529,0.37,0.532,0.439,0.403,0.506,0.582,0.717,0.83,0.928,0.967
FYRKVYHLASV [RBL1_Y796],0.667,0.745,0.853,0.296,0.555,0.416,0.39,0.422,0.447,0.779,0.444,0.566,0.673,0.715,1.15,1.31
GAPATYKGDAR [CACNA1A_Y1013_E1014K],0.489,0.52,0.432,0.401,0.419,0.568,0.384,0.384,0.332,0.319,0.366,0.422,0.452,0.483,1.09,1.17
GCKNRYDKDKP [THAP1_Y14],0.691,0.928,0.655,0.591,0.557,0.752,0.482,0.596,0.506,0.745,0.535,0.474,0.804,0.949,1.36,0.768

Sequence,phosphorylation enrichment [1],phosphorylation enrichment [2],phosphorylation enrichment [3],phosphorylation enrichment [4],phosphorylation enrichment [5],phosphorylation enrichment [6],phosphorylation enrichment [7],phosphorylation enrichment [8],phosphorylation enrichment [9],phosphorylation enrichment [10],phosphorylation enrichment [11],phosphorylation enrichment [12],phosphorylation enrichment [13],SH2 binding enrichment [14],SH2 binding enrichment [15],SH2 binding enrichment [16]
GDEEDYYEIPG [EGFR_opt_no-pY_2015],1.34,1.64,3.2,1.32,6.05,0.968,0.811,0.963,0.919,2.82,1.19,1.26,5.79,1.84,0.87,0.67
GDNSIYVTKII [DLG1_Y349],0.689,0.782,0.748,0.768,0.523,0.518,0.524,0.863,0.472,0.521,0.622,0.693,0.537,0.36,0.878,0.661
GESSGYLRLAF [MEP1A_Y481_R476G],1.02,1.02,0.964,0.459,0.559,0.752,0.464,0.451,0.536,0.507,0.474,0.49,0.696,0.602,0.919,4.31
GFPVHYTGVSN [DNMT3B_Y815_D817G],0.424,0.598,0.545,0.358,0.392,0.608,0.361,0.438,0.38,0.453,0.359,0.424,0.413,1.06,0.878,2.09
GGEEFYVHYVG [KAT8_Y90_R86G],1.22,1.21,1.32,0.565,0.681,0.741,0.455,0.488,0.627,0.532,0.547,0.532,0.849,0.495,0.931,1.89
GGFTCYSDGKK [PROS1_Y266_C267S_YF],1.37,1.51,1.3,0.471,0.555,0.856,0.437,0.55,0.689,0.654,0.55,0.586,0.933,0.317,0.711,0.547
GGGFGYQKTRK [DDX18_Y643_K647R],0.57,0.613,0.597,0.492,0.422,0.719,0.514,0.393,0.629,0.422,0.401,0.302,0.46,0.536,0.976,0.461
GGMAKYTRLHN [EHHADH_Y4_E3K],0.641,0.542,0.492,0.334,0.39,0.491,0.407,0.343,0.351,0.343,0.318,0.458,0.398,1.43,1.12,1.42
GGPAGYLWRAS [PKLR_Y38_R40W],0.601,0.941,0.683,0.344,0.413,0.529,0.392,0.371,0.454,0.392,0.384,0.439,0.505,0.594,0.981,0.729
GGYTRYCDGKK [PROS1_Y266_C265R],0.759,0.585,0.649,0.338,0.37,0.528,0.4,0.446,0.347,0.357,0.365,0.386,0.436,1.21,1.31,0.889
GKLIFHDLRGE [KARS1_Y145_Y145H],0.632,0.802,0.696,0.399,0.37,0.504,0.383,0.389,0.475,0.389,0.369,0.405,0.575,0.473,0.825,0.824
GKTFTYHSVFF [ZNF80_Y200_R201H],1.3,1.25,1.31,0.999,0.618,1,0.46,0.592,0.602,0.655,0.596,0.547,0.904,0.655,0.89,0.645
GKVADYIPQLA [GLS_Y249],0.5,0.684,0.634,0.349,0.478,0.483,0.396,0.408,0.51,0.453,0.514,0.477,0.538,0.481,0.882,0.924
GKVFVYHGSSL [ITGA7_Y458_I457V],0.674,1.06,1.03,0.349,0.514,0.563,0.435,0.434,0.564,0.476,0.449,0.523,0.676,0.638,1.06,0.64
GLDGSYLLRYS [SH2D1A_Y29_D33Y],0.665,0.979,0.685,0.441,0.478,0.542,0.434,0.512,0.436,0.415,0.485,0.455,0.57,0.438,0.97,1.14
GLIPAYHRVIV [NMNAT1_Y64_M69V],1.15,0.933,0.804,0.371,0.627,0.622,0.437,0.481,0.515,0.44,0.458,0.453,0.639,1.26,0.987,0.957
